From US20240294595A1, “GLYCOPEPTIDES AND USES THEREOF” (Arizona Board of Regents on Behalf of the University of …, priority 2013, published 2024)
Where no end group is shown, it is not given here. [ ]: non-standard residue; d: D form. The star is where a group is joined. βGlc = OC[C@H]1O[C@@H](*)[C@H](O)[C@@H](O)[C@@H]1O; Nle = CCCC[C@H](N)C(=O)O

B1: Hs…Ñ…-Ser(Glc) (peptide)
peptide: HSDGIFTDSYSRYRKQXAVKKYLAAVLS
modifications: here or on the partner: D-Serine at 2 (s); L-Nor-Leucine at 17 (Ñ, written X in letters); Ser 28 = L-Ser(β-D-Glc)
B2: PACAP1-27-S-G (peptide)
peptide: HSDGIFTDSYSRYRKQMAVKKYLAAVLS
modifications: here or on the partner: added C-terminal serine carries glucose (serine glucoside)
B3: Hs…Ñ…-Ser(Glc) (peptide)
peptide: HSDGIFTDSYSRYRKQXAVKKYLAAVS
modifications: here or on the partner: D-Serine at 2 (s); L-Nor-Leucine at 17 (Ñ, written X in letters); Ser 27 = L-Ser(β-D-Glc)
B4: Hs…Ñ…-Ser(Glc) (peptide)
peptide: HSDGIFADSYSRYRKQXAVKKYLAAVLS
modifications: here or on the partner: D-Serine at 2 (s); L-Nor-Leucine at 17 (Ñ, written X in letters); Ser 28 = L-Ser(β-D-Glc)

Target: human PAC1 receptor (PAC1-CHO clonal cell line) (human), P41586
Sequence (P41586 21-468): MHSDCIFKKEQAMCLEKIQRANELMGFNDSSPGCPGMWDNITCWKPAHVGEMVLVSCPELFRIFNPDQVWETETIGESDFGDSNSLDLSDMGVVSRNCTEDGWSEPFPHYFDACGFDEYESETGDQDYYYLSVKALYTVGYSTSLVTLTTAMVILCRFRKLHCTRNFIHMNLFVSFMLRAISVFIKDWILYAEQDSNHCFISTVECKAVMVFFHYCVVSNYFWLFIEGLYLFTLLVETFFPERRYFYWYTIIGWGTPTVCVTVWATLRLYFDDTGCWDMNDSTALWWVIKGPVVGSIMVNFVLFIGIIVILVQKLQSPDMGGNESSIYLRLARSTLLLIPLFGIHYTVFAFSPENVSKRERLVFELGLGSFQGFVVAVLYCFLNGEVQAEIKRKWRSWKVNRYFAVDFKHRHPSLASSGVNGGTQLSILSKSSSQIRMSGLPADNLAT
Assay: cell-based or functional assay

Binder | EC50 (agonist) [nM] | EMax (agonist) [%] | further results
B1 | 25.5 | 85 | –
B2 | – | – | normalized efficacy (calcium flux, FLIPR; PACAP1-27 = 100%): 102%; potency of PAC1 activation (calcium flux, FLIPR, agonist mode, PAC1-CHO cells): 5.68 nM
FTDSYSRYRKQMAVKKYLAAVLGKRYKQRVKNK (ends and bridges not checked) [PACAP6-38] | – | – | antagonist potency, variable concentration mode versus 5 nM PACAP1-27 (calcium flux, FLIPR): > 333 nM; pA2 (Gaddum/Schild EC50 shift model): 201 nM
HSDGIFTDSYSRYRKQMAVKKYLAAVL (ends and bridges not checked) [PACAP1-27] | – | 100 | –
B3 | 54.5 | 86 | –
H[dS]DGIFTDSYSRYRKQ[Nle]AVKKYLAALS(βGlc)L-NH2 (ends and bridges not checked) [Hs…Ñ…-Ser(Glc)-L] | > 250 | -79 | –
B4 | > 250 | -71 | –
HSDGIFTDSYSRYRKQLAVKKYLAAVLS(melibiose)-NH2 […-Ser(Mel)] | 0.57 | 99 | –
